Source: PMC9029856, “Impact of Different [Tc(N)PNP]-Scaffolds on the Biological Properties of the Small cRGDfK Peptide: Synthesis, In Vitro and In Vivo Evaluations” (Molecules, 2022)

What was measured:
[1] = tested on: serum proteins; type: in vitro ADME
Protocol: Thus, to have some predictive indications of the metabolic outcome of our compounds, the binding to serum proteins and the enzymatic biotransformation of ^99mTc1–3 in blood and tissue homogenates were assessed in vitro by incubating the purified compounds at 37 °C in human and mouse sera as well as in murine liver and kidney homogenates.
Protein Binding. The affinity of the ^99mTc(N) complexes toward the serum proteins was evaluated by chromatographic methods.
Upon incubation, 25 µL of each sample was withdrawn and loaded on a pre-spun (735× g for 2 min) Sephadex G-50 mini-column. The column was centrifuged at 735 × g for 1 min. The collected eluate and the column were counted in a NaI-scintillation counter. The protein-bound complex was calculated as the percentage of the total activity.

[2] = Cysteine (Cys) and Glutathione (GSH) challenge; type: physicochemical; conditions: 37 °C, pH 7.4, 24 h; for % RCP in challenge with L-cysteine: excess free L-cysteine (10 mM); for % RCP in challenge with GSH: excess glutathione
Protocol: The inertness of the radioconjugates under conditions relevant for in vivo applications were assessed by evaluating the stability of ^99mTc1–3 in solution and after incubation (37 °C) with transchelating agents (glutathione and L-cysteine, 10–1 mM, pH 7.4).
Cysteine (Cys) and Glutathione (GSH) Challenge. Challenge experiments were carried out with the purified complex using an excess of Cys or GSH. An aliquot (50 µL) of an aqueous stock solution of cysteine hydrochloride (10 mM or 2 mM) was added to a propylene test tube containing PBS (400 µL, pH 7.4) and the relevant [^99mTc(N)(H2NS-cRGDfK)(PNP)]^+ complex (50 µL). The mixture was vortexed and incubated at 37 °C for 24 h. A control reaction containing an equal volume of water, instead of cysteine hydrochloride, was studied in parallel. At 0.5, 1, 3, and 24 h, aliquots of the reaction mixture were withdrawn and analyzed by HPLC chromatography. A similar procedure was applied using GSH (50 µL, 10 mM) as challenger.

[3] = set-up: species or system Sprague Dawley rats; conditions: rat, in vivo
Protocol: As expected, MRT values of liver and kidneys were much higher than the dose of stomach, spleen, lung, and heart.
The time–activity curves of the main organs were obtained using the biodistribution data (%IA/organ) as input for the CoKiMo spreadsheet software. Then, the organ mean residence times (MRT) were computed by integration of the organ activity curves, extrapolated until 5 half-lives of Tc-99m (30 h) and corrected for its physical decay, to evaluate the pharmacokinetic profile of each radiolabeled peptide.

[4] = tested on: receptor-negative human melanoma M21L cells; assay: Cell uptake and internalization in M21L cells; type: cell-based; conditions: negative M21L cell line, 37 °C, 90 min
Protocol: Cell uptake and internalization studies were performed on receptor-positive human melanoma M21 (expressing high levels of αvβ3 integrin and moderate level of integrin αvβ5), human breast cancer MCF7 (exclusively expressing αvβ5), and receptor-negative human melanoma M21L cell lines. The expression of αvβ3 and αvβ5 by cells was already evaluated by flow cytometry (Table 2). The stability of each radiolabeled peptide in the culture media before and after cell exposure was assessed.
Experiments were conducted in suspension at 37 °C. The working conditions were set up to avoid cell damage and/or death. With the use of these information, the cells were pre-incubated in sterile glass tubes at 37 °C for 10 min, in the presence or not of cRGDfK pentapeptide (50 µL; 1.65 mM).
Then, 1 mL of the cell suspension (1 × 10^6 cells/mL) was incubated with intermittent agitation with 10 µL (10 µCi) of ^99mTc1–3. At 90 min, the cells were moved in Eppendorf microcentrifuge tubes (1.5 mL) and the incubation was interrupted by centrifugation (3000 rpm for 5 min at 10 °C). The supernatant (S1) was separated from the pellet. The cell pellet was treated 10 min at room temperature with saline acetate buffer (CH3COOH 0.2M/NaCl 0.5 M) to remove the membrane-bound compound. After centrifugation (3000 rpm for 10 min at 10 °C), the supernatant (S2) was separated from the pellet (P1), and each fraction was collected, placed in a separated counting tube, and the activity was measured using a NaI counter (Cobra II, Packard) to estimate both the cell uptake and the internalized fraction.
The uptake of complexes was expressed as percentage cell uptake of the total activity on 10^6 cells (% cell uptake/10^6 cells).
All assessments were conducted in triplicate for three experiments.

Row | Substance | % Protein Binding [1] | % RCP in challenge with L-cysteine [2] | % RCP in challenge with GSH [2] | MRT Blood [3] | MRT Heart [3] | MRT Kidney [3] | MRT Liver [3] | MRT Lung [3] | MRT Spleen [3] | MRT Stomach [3] | cell uptake (sum of surface bound and internalized radioactivity) [4]
1 | [Tc(N)(H2NS-cRGDfK)(PNP3OH)]^+ [^99mTc3] | 7.91 ± 2.01% | 27.31 ± 3.6% | 73.33 ± 2.8% | 14.5 min | 0.4 min | 36.7 min | 26.7 min | 1.6 min | 0.8 min | 2.1 min | 1.73 ± 0.27 % cell uptake/10^6 cells
2 | [Tc(N)(H2NS-cRGDfK)(PNP43)]^+ [^99mTc2] | 13.63 ± 2.95% | > 95% | > 95% | 16.9 min | 0.4 min | 30.7 min | 25.9 min | 1.6 min | 0.8 min | 2.1 min | 1.65 ± 0.40 % cell uptake/10^6 cells
3 | [Tc(N)(H2NS-cRGDfK)(PNP3)]^+ [^99mTc1] | 14.95 ± 1.95% | > 95% | > 95% | 14.7 min | 0.3 min | 9.2 min | 30.5 min | 0.9 min | 1.2 min | 1.5 min | 1.77 ± 0.20 % cell uptake/10^6 cells
